Data reported in patent US20260274985A1 (MYTHIC THERAPEUTICS, published 2026).

Target: T1, Human TROP2 Protein, His Tag (Acro Biosystems) (human, UniProt P09758 27-274)
T1 construct: Bought antigen used at 50 nM in the Octet screen; also called TACSTD2; not shown: His tag
T1 sequence (looked up): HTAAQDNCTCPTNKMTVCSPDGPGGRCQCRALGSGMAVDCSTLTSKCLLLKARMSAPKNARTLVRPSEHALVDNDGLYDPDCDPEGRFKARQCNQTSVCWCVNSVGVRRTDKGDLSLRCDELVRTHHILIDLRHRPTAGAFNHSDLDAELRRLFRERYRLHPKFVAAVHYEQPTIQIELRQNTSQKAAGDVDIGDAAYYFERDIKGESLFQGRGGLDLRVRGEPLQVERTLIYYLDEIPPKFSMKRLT
Test: BLI (Octet) [1/2]
Protocol: After allowing for four days of protein expression, cell culture supernatants were collected, quantified by SDS-PAGE analysis (DNS), and the pH dependence of the variant was evaluated using biolayer interferometry (BLI) on an Octet RED 96e instrument. Briefly, cell culture supernatants were diluted based on qualitative expression level of the variant determined by visual examination of SDS-PAGE gels, 5 μL of cell culture supernatant was diluted into 195 μL of 1×PBST, pH 7.4 for high expressors, 25 μL of cell culture supernatant was diluted into 175 μL of 1×PBST, pH 7.4 for medium expressors and 100 μL of cell culture supernatant was diluted into 100 μL of 1×PBST, pH 7.4 for low expressors for loading onto the sensor tips. The resulting diluted supernatants were then captured on an anti-human Fc sensor (Forte Bio). A baseline was established using 1×PBST (50 mM Potassium Phosphate Buffer+150 mM NaCl+0.05% Tween 20) pH 7.4, and the sensor was associated with 50 nM of TROP2 (Human TROP2 Protein, His Tag, Acro Biosystems) in 1×PBST pH 7.4 for 120 sec to generate an association curve. In the dissociation phase, the antibody-antigen complex on the sensor was exposed to 1×PBST pH 7.4 or pH 5.4, for 300 sec. Association and dissociation phase curves were examined for the starting ABPC antibody (with no substitutions) and each corresponding antibody variant at pH 5.4 and pH 7.4 to inform on two criteria: a) enhanced dissociation (i.e., higher koff values) at pH 5.4 due to histidine or alanine substitution compared to the starting ABPC, (with no substitutions), and b) reduced dissociation at pH 7.4 (i.e., lower koff values) compared to pH 5.4 in the antibody variant itself and with the starting ABPC (with no substitutions). […] It was also noted that while some mutations obliterated TROP2 binding, others were tolerated with little or n change in TROP2 binding kinetics.

B1: MYT11715 (antibody, V domains shown)
VH: QVQLQESGPGLVKPSETLSLTCTVSGGSISSYGVHWIRQPPGKGLEWIGHIWTSGVTDYNSALMGRVTISVDTSKNQFSLKLSSVTAADTAVYYCARDGDYDRYTMDYWGQGTLVTVSS
VL: DIVMTQSPDSLAVSLGERATINCRASKSVSTSGYSYMHWYQQKPGQPPKLLIYLASNLESGVPDRFSGSGSGTDFTLTISSLQAEDVAVYYCQHSRELPYTFGQGTKLEIK
notes: hu7E6SVG variant, His at HCV position 50 (H2 01); screened as IgG in Expi293 supernatant
B1: no binding (tested: 50 nM).

B2: MYT11723 (antibody, V domains shown)
VH: QVQLQESGPGLVKPSETLSLTCTVSGGSISSYGVHWIRQPPGKGLEWIGVIWTSGVTHYNSALMGRVTISVDTSKNQFSLKLSSVTAADTAVYYCARDGDYDRYTMDYWGQGTLVTVSS
VL: DIVMTQSPDSLAVSLGERATINCRASKSVSTSGYSYMHWYQQKPGQPPKLLIYLASNLESGVPDRFSGSGSGTDFTLTISSLQAEDVAVYYCQHSRELPYTFGQGTKLEIK
notes: hu7E6SVG variant, His at HCV position 58 (H2 09); screened as IgG in Expi293 supernatant
B2: no binding (tested: 50 nM).

B3: MYT11726 (antibody, V domains shown)
VH: QVQLQESGPGLVKPSETLSLTCTVSGGSISSYGVHWIRQPPGKGLEWIGVIWTSGVTDYNHALMGRVTISVDTSKNQFSLKLSSVTAADTAVYYCARDGDYDRYTMDYWGQGTLVTVSS
VL: DIVMTQSPDSLAVSLGERATINCRASKSVSTSGYSYMHWYQQKPGQPPKLLIYLASNLESGVPDRFSGSGSGTDFTLTISSLQAEDVAVYYCQHSRELPYTFGQGTKLEIK
notes: hu7E6SVG variant, His at HCV position 61 (H2 12); screened as IgG in Expi293 supernatant
B3: binds.

B4: MYT11720 (antibody, V domains shown)
VH: QVQLQESGPGLVKPSETLSLTCTVSGGSISSYGVHWIRQPPGKGLEWIGVIWTSHVTDYNSALMGRVTISVDTSKNQFSLKLSSVTAADTAVYYCARDGDYDRYTMDYWGQGTLVTVSS
VL: DIVMTQSPDSLAVSLGERATINCRASKSVSTSGYSYMHWYQQKPGQPPKLLIYLASNLESGVPDRFSGSGSGTDFTLTISSLQAEDVAVYYCQHSRELPYTFGQGTKLEIK
notes: hu7E6SVG variant, His at HCV position 55 (H2 06); screened as IgG in Expi293 supernatant
B4: binds.

B5: MYT11727 (antibody, V domains shown)
VH: QVQLQESGPGLVKPSETLSLTCTVSGGSISSYGVHWIRQPPGKGLEWIGVIWTSGVTDYNSHLMGRVTISVDTSKNQFSLKLSSVTAADTAVYYCARDGDYDRYTMDYWGQGTLVTVSS
VL: DIVMTQSPDSLAVSLGERATINCRASKSVSTSGYSYMHWYQQKPGQPPKLLIYLASNLESGVPDRFSGSGSGTDFTLTISSLQAEDVAVYYCQHSRELPYTFGQGTKLEIK
notes: hu7E6SVG variant, His at HCV position 62 (H2 13); screened as IgG in Expi293 supernatant
B5: binds.

B6: MYT11728 (antibody, V domains shown)
VH: QVQLQESGPGLVKPSETLSLTCTVSGGSISSYGVHWIRQPPGKGLEWIGVIWTSGVTDYNSAHMGRVTISVDTSKNQFSLKLSSVTAADTAVYYCARDGDYDRYTMDYWGQGTLVTVSS
VL: DIVMTQSPDSLAVSLGERATINCRASKSVSTSGYSYMHWYQQKPGQPPKLLIYLASNLESGVPDRFSGSGSGTDFTLTISSLQAEDVAVYYCQHSRELPYTFGQGTKLEIK
notes: hu7E6SVG variant, His at HCV position 63 (H2 14); screened as IgG in Expi293 supernatant
B6: binds.

B7: MYT11716 (antibody, V domains shown)
VH: QVQLQESGPGLVKPSETLSLTCTVSGGSISSYGVHWIRQPPGKGLEWIGVHWTSGVTDYNSALMGRVTISVDTSKNQFSLKLSSVTAADTAVYYCARDGDYDRYTMDYWGQGTLVTVSS
VL: DIVMTQSPDSLAVSLGERATINCRASKSVSTSGYSYMHWYQQKPGQPPKLLIYLASNLESGVPDRFSGSGSGTDFTLTISSLQAEDVAVYYCQHSRELPYTFGQGTKLEIK
notes: hu7E6SVG variant, His at HCV position 51 (H2 02); screened as IgG in Expi293 supernatant
B7: binds.

B8: MYT11725 (antibody, V domains shown)
VH: QVQLQESGPGLVKPSETLSLTCTVSGGSISSYGVHWIRQPPGKGLEWIGVIWTSGVTDYHSALMGRVTISVDTSKNQFSLKLSSVTAADTAVYYCARDGDYDRYTMDYWGQGTLVTVSS
VL: DIVMTQSPDSLAVSLGERATINCRASKSVSTSGYSYMHWYQQKPGQPPKLLIYLASNLESGVPDRFSGSGSGTDFTLTISSLQAEDVAVYYCQHSRELPYTFGQGTKLEIK
notes: hu7E6SVG variant, His at HCV position 60 (H2 11); screened as IgG in Expi293 supernatant
B8: binds.

B9: MYT11730 (antibody, V domains shown)
VH: QVQLQESGPGLVKPSETLSLTCTVSGGSISSYGVHWIRQPPGKGLEWIGVIWTSGVTDYNSALMHRVTISVDTSKNQFSLKLSSVTAADTAVYYCARDGDYDRYTMDYWGQGTLVTVSS
VL: DIVMTQSPDSLAVSLGERATINCRASKSVSTSGYSYMHWYQQKPGQPPKLLIYLASNLESGVPDRFSGSGSGTDFTLTISSLQAEDVAVYYCQHSRELPYTFGQGTKLEIK
notes: hu7E6SVG variant, His at HCV position 65 (H2 16); screened as IgG in Expi293 supernatant
B9: binds.

B10: MYT11722 (antibody, V domains shown)
VH: QVQLQESGPGLVKPSETLSLTCTVSGGSISSYGVHWIRQPPGKGLEWIGVIWTSGVHDYNSALMGRVTISVDTSKNQFSLKLSSVTAADTAVYYCARDGDYDRYTMDYWGQGTLVTVSS
VL: DIVMTQSPDSLAVSLGERATINCRASKSVSTSGYSYMHWYQQKPGQPPKLLIYLASNLESGVPDRFSGSGSGTDFTLTISSLQAEDVAVYYCQHSRELPYTFGQGTKLEIK
notes: hu7E6SVG variant, His at HCV position 57 (H2 08); screened as IgG in Expi293 supernatant
B10: binds.

B11: MYT11718 (antibody, V domains shown)
VH: QVQLQESGPGLVKPSETLSLTCTVSGGSISSYGVHWIRQPPGKGLEWIGVIWHSGVTDYNSALMGRVTISVDTSKNQFSLKLSSVTAADTAVYYCARDGDYDRYTMDYWGQGTLVTVSS
VL: DIVMTQSPDSLAVSLGERATINCRASKSVSTSGYSYMHWYQQKPGQPPKLLIYLASNLESGVPDRFSGSGSGTDFTLTISSLQAEDVAVYYCQHSRELPYTFGQGTKLEIK
notes: hu7E6SVG variant, His at HCV position 53 (H2 04); screened as IgG in Expi293 supernatant
B11: binds.

B12: MYT11729 (antibody, V domains shown)
VH: QVQLQESGPGLVKPSETLSLTCTVSGGSISSYGVHWIRQPPGKGLEWIGVIWTSGVTDYNSALHGRVTISVDTSKNQFSLKLSSVTAADTAVYYCARDGDYDRYTMDYWGQGTLVTVSS
VL: DIVMTQSPDSLAVSLGERATINCRASKSVSTSGYSYMHWYQQKPGQPPKLLIYLASNLESGVPDRFSGSGSGTDFTLTISSLQAEDVAVYYCQHSRELPYTFGQGTKLEIK
notes: hu7E6SVG variant, His at HCV position 64 (H2 15); screened as IgG in Expi293 supernatant
B12: binds.

B13: MYT11719 (antibody, V domains shown)
VH: QVQLQESGPGLVKPSETLSLTCTVSGGSISSYGVHWIRQPPGKGLEWIGVIWTHGVTDYNSALMGRVTISVDTSKNQFSLKLSSVTAADTAVYYCARDGDYDRYTMDYWGQGTLVTVSS
VL: DIVMTQSPDSLAVSLGERATINCRASKSVSTSGYSYMHWYQQKPGQPPKLLIYLASNLESGVPDRFSGSGSGTDFTLTISSLQAEDVAVYYCQHSRELPYTFGQGTKLEIK
notes: hu7E6SVG variant, His at HCV position 54 (H2 05); screened as IgG in Expi293 supernatant
B13: binds.

B14: MYT11724 (antibody, V domains shown)
VH: QVQLQESGPGLVKPSETLSLTCTVSGGSISSYGVHWIRQPPGKGLEWIGVIWTSGVTDHNSALMGRVTISVDTSKNQFSLKLSSVTAADTAVYYCARDGDYDRYTMDYWGQGTLVTVSS
VL: DIVMTQSPDSLAVSLGERATINCRASKSVSTSGYSYMHWYQQKPGQPPKLLIYLASNLESGVPDRFSGSGSGTDFTLTISSLQAEDVAVYYCQHSRELPYTFGQGTKLEIK
B14: binds.

B15: MYT11721 (antibody, V domains shown)
VH: QVQLQESGPGLVKPSETLSLTCTVSGGSISSYGVHWIRQPPGKGLEWIGVIWTSGHTDYNSALMGRVTISVDTSKNQFSLKLSSVTAADTAVYYCARDGDYDRYTMDYWGQGTLVTVSS
VL: DIVMTQSPDSLAVSLGERATINCRASKSVSTSGYSYMHWYQQKPGQPPKLLIYLASNLESGVPDRFSGSGSGTDFTLTISSLQAEDVAVYYCQHSRELPYTFGQGTKLEIK
notes: hu7E6SVG variant, His at HCV position 56 (H2 07); screened as IgG in Expi293 supernatant
B15: binds.
